Assay results as given in publication PMC5472786.

Tests used:
[1] = test system: INO80 complex (Ino80-FLAG) (Saccharomyces cerevisiae S288C); assay: EMSA; conditions: saturating INO80, 30 C, EMSA: 10 mM Na-HEPES pH 7.8, 4 mM MgCl2, 60 mM NaCl, 0.2 mM EGTA, 0.04 mM EDTA, 8% glycerol, 0.1 ug/uL BSA, 30 min, footprinting and crosslinking at 30 C
[2] = test system: Ino80 (catalytic subunit within INO80 complex) (Saccharomyces cerevisiae S288C); assay: site-specific DNA photocrosslinking; conditions: 10 A tether, in INO80 complex, AB-dUMP (10 A) or ABG2-dUMP (18.6 A) at nt -58 from dyad, EMSA: 10 mM Na-HEPES pH 7.8, 4 mM MgCl2, 60 mM NaCl, 0.2 mM EGTA, 0.04 mM EDTA, 8% glycerol, 0.1 ug/uL BSA, 30 C, 30 min, footprinting and crosslinking at 30 C
[3] = target: H2A-containing mono-nucleosome (recombinant Xenopus laevis histone octamer on 601 DNA with 70 bp of extranucleosomal DNA) (Xenopus laevis) (UniProt P06897); assay: native gel or EMSA; 70N0 nucleosomes with photoreactive DNA bound with saturating amounts of INO80 at 30 °C; extent of binding assessed on 4% native polyacrylamide gels

With “70N0 nucleosome, photoreactive dUMP at nt -33/-30” the binding signal (% nucleosomes bound) ([1]; photoreactive dUMP at nt -30 to -33 from dyad) was > 90.

In the case of “70N0 nucleosome, photoreactive dUMP at nt -58”, the binding signal (fold crosslinking vs no nucleotide) ([2]; ADP) is reported as 4, the binding signal (fold crosslinking vs no nucleotide) ([2]; ATPgS) is reported as 4 and the binding signal (% nucleosomes bound) ([1]; AB-dUMP (10 A) or ABG2-dUMP (18.6 A) at nt -58 from dyad) is reported as > 90.

“INO80 complex (from UniProt P53115 1-1489; P80428 1-489; P40154 1-320)” was tested, and the percent of nucleosomes bound [3] was > 90%.
